# Source: patent US20160184454A1, “RAB7L1 INTERACTS WITH LRRK2 TO MODIFY INTRANEURONAL PROTEIN SORTING AND PARKINSON'S DISEASE RISK” (THE TRUSTEES OF COLUMBIA UNIVERSITY IN THE CITY OF NEW YORK, priority 2013, published 2016)
# B1: CA RAB7L1: constitutively active RAB7L1 (Q67L, deficient in GTPase activity); in b298 the same words denote the fly transgene (protein, UniProt O14966 1-203, looked up, variant Q67L)
# Ras-related protein Rab-7L1: MGSRDHLFKVLVVGDAAVGKTSLVQRYSQDSFSKHYKSTVGVDFALKVLQWSDYEIVRLQLWDIAGLERFTSMTRLYYRDASACVIMFDVTNATTFSNSQRWKQDLDSKLTLPNGEPVPCLLLANKCDLSPWAVSRDQIDRFSKENGFTGWTETSVKENKNINEAMRVLIEKMMRNSTEDIMSLSTQGDYINLQTKSSSWSCC
# B2: Rab7WT: TH-driven Drosophila Rab GTPase transgene, wild-type Rab7 (protein, UniProt O76742 1-207, looked up)
# Ras-related protein Rab7: MSGRKKSLLKVIILGDSSVGKTSLMNQYVNKRFSNQYKATIGADFCTKEVVVNDRVVTMQIWDTAGQERFQSLGVAFYRGADCCVLVYDVTAPNSFKNLDSWRDEFLIQASPRDPDHFPFVVLGNKVDLDNRQVSTRRAQQWCQSKNDIPYYETSAKEGINVEMAFQVIAKNALELEAEAEVINDFPDQITLGSQNNRPGNPDNCQC
# B3: Rab7L1WT: TH-driven wild-type Drosophila RAB7L1 orthologue (termed lightoid) transgene (protein)
# chain: MGSRDHLFKVLVVGDAAVGKTSLVQRYSQDSFSKHYKSTVGVDFALKVLQWSDSEMVRLQLWDIAGQERFTSMTRLYYRDASACVIMFDVTNATTFSNSQRWKQDLDSKLTLPSGEPVPCLLLANKSDLSPWAVSRDQIDRFSKENGFTGWTETSVKENKNINEAMRVLVEKMMNNSREDIMSSSTQGNYINLQTKPSPGWTCC
# modifications: left off: large carriers
# notes: TH-driven wild-type Drosophila RAB7L1 orthologue (termed lightoid) transgene
# Key:
# [1] = test system: Drosophila model of LRRK2 G2019S neurodegeneration; test: Drosophila adult survival: Rab modifier screen of the LRRK2 G2019S early adult lethality phenotype; format: in vivo; conditions: for Average adult lifespan: TH-driven Rab GTPase transgene co-expressed with LRRK2 G2019S in Drosophila dopamine neurons, days post-eclosion; for rescue of the LRRK2 G2019S premature mortality phenotype (survival): co-expression with LRRK2 G2019S in Drosophila dopamine neurons
# Description: To pursue potential mechanisms of LRRK2 pathology in vivo, a Drosophila model was established. […] Dopamine neuron-selective expression of human familial PD-associated G2019S-mutant LRRK2—using either a tyrosine hydroxylase (TH) (Friggi-Grelin et al., 2003) or dopa decarboxylase (DDC) promoter-Gal4 driver (Fischer et al., 1988)—induced premature mortality of young adult animals (FIG. 4A; nontransgenic mean lifespan 37.1 days+/−1; G2019S mean lifespan 4.8 days+/−0.2), akin to previous reports (Ng et al., 2009).
# Subsequently a targeted screen for potential genetic modifiers of the LRRK2 G2019S mutant phenotype was performed, based on the idea that LRRK2 may modify a specific intracellular trafficking process, and focused on RAB7L1. A series of 16 Drosophila Rab genes, (see Table 4; out of 33 identified in Drosophila), or CA or IN forms of these (Zhang et al., 2007), were investigated.
# Briefly, LRRK2 G2019S mutants were mated with a panel of previously described transgenic Drosophila strains that allow for overexpression of wild-type (WT) or constitutively active (CA), forms of the Rab genes (Zhang et al., 2007), using a standard balancer chromosome-based mating scheme. Co-expression of a majority of these Rab transgenes with LRRK2 within dopamine neurons produced no effect on the survival of animals co-expressing LRRK2 G2019S (FIG. 4A; Table 4).
# (§1) Drosophila were cultured by standard methods on yeast-cornmeal-agar medium at 25° C. Wild-type and mutant G2019S LRRK2 transgenes were expressed specifically in catecholaminergic neurons, including dopamine neurons, using the Gal4-UAS system described (Fischer et al., 1988). Driver lines used include OK6 (motor neuron), Gmr (eye), G14 (muscle), TH (dopaminergic neuron), and DDC (dopaminergic neuron). A UAS-GFP::nuclear localization sequence (NLS) marker was used to visualize nucleii of cells in which trangenes were expressed (stock 4775 (w 1118; P{UAS-GFP.nls}14), Drosophila Stock Center, Bloomington, Ind.). For the RAB screen, UAS-LRRK2 (G2019S) transgenic Drosophila, crossed with the TH-Gal4 driver, were screened against a UAS-Rab transgenic library (Zhang et al., 2007). Crossings were typically performed using standard balancer chromosome techniques. To generate strains in which the homozygous LRRK2 transgene and another (Driver or marker) transgene lay on the same chromosome (III), genetic recombination was using standard techniques. Adult Drosophila mushroom bodies were dissected as in (Wu and Luo, 2006) and imaged immediately, without fixation, using a Zeiss LSM510 Meta confocal fluorescent microscope. For mortality curves, transgenic Drosophila surviving through adult metamorphosis were counted daily, from the day of pupal eclosion onward. Locomotion deficits were assessed by methods know in the art.
# [2] = test system: Lrrk mutant (−/−) Drosophila; test: Negative geotaxis analysis of lrrk mutant Drosophila; format: in vivo; conditions: pan-neuronal expression in lrrk mutant (−/−) Drosophila
# Experimental: FIG. 11 is a bar graph showing a negative geotaxis analysis of lrrk mutant Drosophila. […] Bars represent Mean times to climb 10 cm upward in a cylinder are represented. Error bars are SEM. ***: p<0.001, for comparison with the non-transgenic group by ANOVA (df=3, F=13.14) followed by Tukey HSD post hoc analysis.
# as §1, with “To generate strains in which the homozygous LRRK2 transgene and another (Driver or marker) transgene lay on the same chromosome (III), genetic recombination was using standard techniques. Adult Drosophila mushroom bodies were dissected as in (Wu and Luo, 2006) and imaged immediately, without fixation, using a Zeiss LSM510 Meta confocal fluorescent microscope.” left out
# [3] = test system: rat primary cortical neurons; test: Neurite length assay in transfected primary cortical neuron cultures; format: cell-based; conditions: co-transfection with LRRK2 G2019S (0.5 μg/well); test vector 1 μg/well
# Description: As 5 candidate genes are present within the PARK16 locus (SLC45A3, NUCKS, RAB7L1, SLC41A1, and PM20D1), each of the genes were experimentally screened for a functional interaction with LRRK2 (FIG. 2A). A previously-described primary rat neuron in vitro culture model was used, in which transient expression of familial PD-associated LRRK2 G2019S or R1441C mutant alleles leads to a marked reduction in neurite process length (MacLeod et al., 2006). […] RAB7L1 is a small cytosolic GTPase, structurally distinct from RAB7 despite its name (also known as RAB29) (Shimizu et al., 1997). […] But the function of RAB7L1 in CNS neurons remains unknown. Orthologues of RAB7L1 in other organisms, including C. elegans Glo-1 and Drosophila melanogaster Lighloid, have been implicated in trafficking to lysosome-related organelles (Hermann et al., 2005) and in the regulation of neurite process length (Grill et al., 2007), reminiscent of LRRK2 mutant phenotypes (MacLeod et al., 2006). Thus this gene was of particular interest.
# Sprague-Dawley rat or mouse PI primary dissociated cortical cultures were prepared and transfected essentially as described (Xia et al., 1996) with the following modifications: cells were plated at high density, approximately 250,000 cells/cm2, in 24-well plates with 500 ul medium/well. Culture medium used for plating cells was Neurobasal-A supplemented with 2% B-27 and 10% FBS. At 1 day after plating, medium was changed to reduced serum (1% FBS+added antimitotic agents: 70 μM uridine and 25 μM 5-fluorodeoxyuridine) and replaced weekly thereafter; for transfections no DMSO was added to the transfection mixture, cells were not subjected to glycerol shock, and a total of 3 μg plasmid DNA was used per well. Cells were fixed in 4% PFA and immunostained with mouse α-RAB7L1 (Santa Cruz, 1:100), and rabbit monoclonal α-LRRK2 (Michal J. Fox Foundation MJFF4, 1:100), then with appropriate fluorescent secondaries (Jackson, 1:1000-2000). Neurite length and neurite puncta (defined as swellings greater than 2 um in diameter) were counted for at least 20 neurons per condition. Mean puncta number per neuron was normalized to total average neurite length versus wild-type LRRK2 transfected cells. Fluorescent microscopy was performed using a Nikon TE 2000-S microscope and a Zeiss LSM510 Meta confocal microscope. Images were analyzed using Image-Pro Plus (Mediacybernetics) software version 5.1.0.20.
# [4] = test system: Drosophila dopamine neurons; test: Surviving dopaminergic neurons in PPM1 and PPL1 clusters of Drosophila CNS mushroom bodies; format: in vivo; conditions: co-expression with LRRK2 G2019S
# Description: Next, dopamine neuron survival at the dorsomedial posterior protocerebral (PPM1) and dorsolateral posterior protocerebral (PPL1) clusters of Drosophila CNS mushroom bodies was quantified in terms of the loss of expression of a dopamine neuron-specific nuclear localization signal (NLS)-GFP marker protein, using fluorescent confocal microscopy analysis of whole mounted tissue.
# Wild-type and mutant G2019S LRRK2 transgenes were expressed specifically in catecholaminergic neurons, including dopamine neurons, using the Gal4-UAS system described (Fischer et al., 1988). […] A UAS-GFP::nuclear localization sequence (NLS) marker was used to visualize nucleii of cells in which trangenes were expressed (stock 4775 (w 1118; P{UAS-GFP.nls}14), Drosophila Stock Center, Bloomington, Ind.). […] Adult Drosophila mushroom bodies were dissected as in (Wu and Luo, 2006) and imaged immediately, without fixation, using a Zeiss LSM510 Meta confocal fluorescent microscope.
Molecule,defective negative geotaxis (time to climb 10 cm) [2],Average adult lifespan [1] [days],rescue of the LRRK2 G2019S premature mortality phenotype (survival) [1],also measured
human LRRK2 WT: wild-type human LRRK2 transgene,can be rescued,,,phenotype on transgenic expression ([1]; dopamine neuron-selective expression of the LRRK2 transgene alone): did not lead to a discernible phenotype
G2019S: human familial PD-associated G2019S-mutant LRRK2 transgene,can be rescued,,,mean lifespan ([1]; dopamine neuron-selective expression of the LRRK2 transgene alone (TH or DDC Gal4 driver)): 4.8 days
B1,,,,LRRK2 mutation-induced neurite length phenotype [3]: significantly suppressed; LRRK2 G2019S dopamine neuron loss phenotype [4]: rescued the LRRK2 G2019S dopamine neuron loss phenotype
B2,,10.2,statistically significant—albeit much weaker—survival benefit,mean lifespan ([1]; Rab transgene co-expressed with LRRK2 G2019S in dopamine neurons): 14.3 days
B3,,23.3,dramatic rescue,
